This is an account of results in publication PMC2724296 (Nucleic Acids Research, 2009).

Data set [1] has as its target T1, ST1710 (Sulfurisphaera tokodaii, UniProt Q96ZY1).
T1 sequence (Q96ZY1 1-146): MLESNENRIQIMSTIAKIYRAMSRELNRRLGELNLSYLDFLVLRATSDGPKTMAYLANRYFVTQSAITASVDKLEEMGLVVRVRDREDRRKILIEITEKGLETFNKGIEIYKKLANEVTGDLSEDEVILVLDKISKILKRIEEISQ
Description: differential scanning calorimetry. The class given is binding.

The target of data set [2] is T2, ST1710 (Sulfolobus tokodaii strain 7, UniProt Q96ZY1 1-146).
T2 sequence: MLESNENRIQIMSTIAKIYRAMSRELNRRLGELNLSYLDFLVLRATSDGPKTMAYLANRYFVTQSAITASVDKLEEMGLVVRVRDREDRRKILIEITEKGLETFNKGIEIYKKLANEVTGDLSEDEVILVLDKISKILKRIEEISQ
Description: crystal structure.

The target of another data set is T3, ST1710 R89A (Sulfolobus tokodaii strain 7, UniProt Q96ZY1 1-146, R89A).
T3 sequence: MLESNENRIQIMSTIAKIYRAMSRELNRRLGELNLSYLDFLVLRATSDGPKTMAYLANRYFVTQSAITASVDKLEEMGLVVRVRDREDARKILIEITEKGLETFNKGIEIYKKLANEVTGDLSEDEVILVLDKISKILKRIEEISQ
Put plainly: EMSA.

Another data set has as its target T4, ST1710 R90A (Sulfolobus tokodaii strain 7, UniProt Q96ZY1 1-146, R90A).
T4 sequence: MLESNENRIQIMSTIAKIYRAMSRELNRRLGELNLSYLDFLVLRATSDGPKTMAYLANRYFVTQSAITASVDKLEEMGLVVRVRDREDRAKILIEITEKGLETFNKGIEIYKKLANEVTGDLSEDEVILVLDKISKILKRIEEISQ
Description: EMSA.

In the next data set the target is T5, ST1710 K91A (Sulfolobus tokodaii strain 7, UniProt Q96ZY1 1-146, K91A).
T5 sequence: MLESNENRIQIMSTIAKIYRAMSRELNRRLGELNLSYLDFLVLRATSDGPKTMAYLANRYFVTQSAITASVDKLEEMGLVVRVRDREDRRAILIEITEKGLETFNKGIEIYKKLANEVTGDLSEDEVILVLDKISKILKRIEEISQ
Put plainly: EMSA. (A gel shift assay detects complexes by their altered migration in electrophoresis.)

For orientation: Kd means the free concentration of one partner at which half of the binding sites on the other are occupied at equilibrium, for simple one-to-one binding.

As to `O=C(O)c1ccccc1O` [sodium salicylate], at ST1710 [1], the affinity, expressed as Kd, was 20 ± 4.9 mM.

B1: 30-mer putative st1710 promoter duplex (dsDNA)
DNA 1: AATAATGTCATTGTTAACAATAGCAAAAAT
DNA 2: ATTTTTGCTATTGTTAACAATGACATTATT
Turning to B1, the binding result in the data set with ST1710 [2] is “binds”; with ST1710 R89A, “no binding”; with ST1710 R90A it was “no binding”; in the data set with ST1710 K91A it was “no binding”.
